Test [1] concerns the target F5/8C module of LamA (Paenibacillus β-1,3-glucanase), residues 1636-1793 (Paenibacillus sp. BCRC 17245). Nature of the test: cross-linking; protein 0.65 mg/mL, 0.05% glutaraldehyde, room temperature, 1 h, 12% SDS-PAGE.
The target is the same in test [2]. Nature of the test: SEC; Sephacryl S-300 gel filtration column (Hiprep 16/60), 10 mM sodium acetate pH 5.8, 10% glycerol; monomer to dimer.
Test [3] shares this target. Put plainly: AUC; sedimentation velocity, 20°C, 42000 rpm, protein 0.17 mg/mL in 10 mM phosphate pH 7.0, 10% glycerol; c(s) by Sedfit94; monomer to dimer.

For orientation: stoichiometry N means the number of molecules, sites or subunits per partner or assembly. As to “F5/8C module of LamA (Paenibacillus β-1,3-glucanase), residues 1636-1793 (domain or fragment)”, the stoichiometry N in test [1], in test [2] and in test [3] was 2 each time. The dimer fraction in test [2] and in test [3] was 15% throughout.

For the origin of these results see PMC2789033.
